B1: TPR 5TU (parent)
chain: GGAUCUUCUCGAUCUAACAAAAAAGACAAAUCUGCCACAAAGCUUGAGAGCAUCUUCGGAUGCAGAGGCGGCAGCCUUCGGUGGCGCGAUAGCGCCAACGUUCUCAACUAUGACACGCAAAACGCGUGCUCCGUUGAAUGGAGUUUAUCAUG

This sample holds only a part of the variants without activity.

Variants of B1 are the subject of this series. The experiment in a line: polymerase ribozyme fitness, log enrichment relative to wild type (log ratio); higher = more active; in vitro selection for triplet polymerase activity. Summed up: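 Fitness measures genotype enrichment against wild-type enrichment on a logarithmic scale, with inverse-variance-weighted averaging of replicates. The logarithm is base 2, and genotypes were kept only with ≥10 input reads and ≥1 read per output in Illumina sequencing. The sequenced libraries came from one triplicate in vitro selection round, including frozen incubation at −7 °C, of PCR-built, transcribed mutant libraries of each subunit of a heterodimeric triplet polymerase ribozyme.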
As to A28G A106G U134G, the “polymerase ribozyme fitness (log ratio)” value was at most -4.2.
As for A52C C87U A89C C99U, the figure is -4.14; as for C5U A91U, -3.99; as for U13G, -0.261.
Then U13C A20C G83U C85A C93A, with at most -4.2; and U44A C54A U77A G92C C118A A120G G136C G140A, with at most -4.2; and A19G A40U G62U A121U G141U, with -1.46.
In the case of A19U G50A, the “polymerase ribozyme fitness (log ratio)” value was -1.63.
Then U44G G81C C96U C108G, with at most -4.2; and C75U G84U U134C, with -1.39.
A12G A41C A66G C79U G86C C103A C105A A107G: the “polymerase ribozyme fitness (log ratio)” value was at most -4.2.
For the variant C38U C105G G141U, the “polymerase ribozyme fitness (log ratio)” value is -1.54.
For A16G A23U A29G A47C G50A C87G A106U U135C A147U, the “polymerase ribozyme fitness (log ratio)” value is at most -4.2.
With A21U G58C A73G C85G, the “polymerase ribozyme fitness (log ratio)” value is -1.7.
Regarding C76U C96A, the “polymerase ribozyme fitness (log ratio)” value is 0.322.
Turning to A20U A23C A47G U77G G84C A97U C118U, the “polymerase ribozyme fitness (log ratio)” value is at most -4.2.
U82G A91U A110U G117A: the “polymerase ribozyme fitness (log ratio)” value is at most -4.2.
Then U4C C38G G59A U61A U148C, with at most -4.2; and A52C C57A C69U C85U, with -3.07; and C38U G84A U139A, with at most -4.2.
Then G92A C105U G141C, with -3.39; and U4G C27G A40U C116G A137C, with at most -4.2.
In the case of G94U C125U G143U, the “polymerase ribozyme fitness (log ratio)” value is -4.16.
For the variant U4A C8U A16U A40C U53A C57U C87A A97U U145G, the “polymerase ribozyme fitness (log ratio)” value was at most -4.2.
For the variant G81A G94A G143U, the “polymerase ribozyme fitness (log ratio)” value is -2.83.
Then A41C A47G, with -0.27; and A12C A39U G88C A115C G126A, with at most -4.2; and U82A C118U, with -0.0134.
Regarding C38G C51U C95A C99G A106U C125A U134A, the “polymerase ribozyme fitness (log ratio)” value was at most -4.2.
For the variant A30G A47G U56A G71C G117U A150U, the “polymerase ribozyme fitness (log ratio)” value is at most -4.2.
Then C5U A16U C87A A106C, with at most -4.2; and C27U C54U G58A A106G, with -0.532; and A16G A91U C105G A115G, with at most -4.2.
Take G58A A147U: the “polymerase ribozyme fitness (log ratio)” value came to 0.692.
On to G25U A49C G88U A97G, for which the “polymerase ribozyme fitness (log ratio)” value is at most -4.2.
Then G83C G94U, with -2.72; and U4G C38U C93G, with -2.52; and U53A C93G A98G, with at most -4.2.
Take U56G U102C: the “polymerase ribozyme fitness (log ratio)” value is -1.91.
As for A40C U109C C116U C131U A147U, the “polymerase ribozyme fitness (log ratio)” value was -2.36.
Consider A20G A26U, for which the “polymerase ribozyme fitness (log ratio)” value was -2.24.
As for G34U G50U A91C, the figure is -4.01; as for U55A C96U U127C U134C, -3.3; as for C54U U61A A106G G152C, at most -4.2.
Then A39U A97U A119C, with -3.36.
A91U G124U C131G: the “polymerase ribozyme fitness (log ratio)” value was at most -4.2.
As for A19G A122C G136C A142C, the figure is -3.74; as for C43U U53G, at most -4.2.
As for C10U A22G A49G A142C, the figure is at most -4.2.
With G11C A20U A40U U82G G83A C93A C108A, the “polymerase ribozyme fitness (log ratio)” value was at most -4.2.
As to C54A G70C G88A C93G U134A U146A, the “polymerase ribozyme fitness (log ratio)” value is at most -4.2.
On to G42A C75G C96G, for which the “polymerase ribozyme fitness (log ratio)” value was at most -4.2.
Then U15G C35U A41C A115G U145G, with -4.04.
C57A C129U G141A: the “polymerase ribozyme fitness (log ratio)” value is at most -4.2.
C54G C75U G94A: the “polymerase ribozyme fitness (log ratio)” value is -1.51.
Then A30C C35U G59A G88U G117A, with at most -4.2; and A29G G50A A52C U101G G133C, with at most -4.2; and A12U G48U U53A C54G G71A C75G G86A C95U A119C, with at most -4.2.
For A22U A41C A52U G124U, the “polymerase ribozyme fitness (log ratio)” value is -2.3.
Take A89U C95A A97U U111G G124A C149A U151C: the “polymerase ribozyme fitness (log ratio)” value is at most -4.2.
Then A40C G67C G71C A98G C103A C105G, with at most -4.2; and A24U A37U G42C C75G, with -3.99.
With C51A A52G G68A A142C U144A, the “polymerase ribozyme fitness (log ratio)” value was at most -4.2.
On to G80U A91G A110G, for which the “polymerase ribozyme fitness (log ratio)” value is at most -4.2.
As to U7C C18G G25C A28U C38G U55A G70C G94C, the “polymerase ribozyme fitness (log ratio)” value is at most -4.2.
Consider A24C G81U C87G U104G A110U, for which the “polymerase ribozyme fitness (log ratio)” value was at most -4.2.

For the origin of these results see the RNAGym collection of RNA variant scans (doi:10.1073/pnas.2313332121).
